The values below come from the supplement of paper PMC9732359.

± gives the uncertainty stated by the source.

The nature of this data set: protein stability index of a GFP-peptide fusion (yeast GPS) (PSI 1-4); higher = more stable; sorted into four equal gates, so the index is relative within each strain. The method in brief:
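Sequencing reads from sorted gates were used to score each peptide. The library consisted of tiled 17-residue yeast protein peptides fused downstream of GFP on a Cherry-expressing plasmid, pooled and carried in yeast. Mid-log cultures in leucine-free medium were split into four equal gates by GFP/Cherry ratio, and each gate's plasmids were PCR-amplified and Illumina-sequenced. The protein stability index adds up, over all gates, the read frequency multiplied by the gate number.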

As for IESDSILNLLNILTTHL [ECM29], the protein stability index (doa10∆) is 2.39 ± 0.043, the protein stability index (pdr5∆) was found to be 2.02 ± 0.046, the protein stability index (san1∆) is 1.75 ± 0.049 and the protein stability index (ubr1∆) stood at 2.32 ± 0.049.
For IESIVNLAPKLRNVFLG [GRR1], in that order: 1.94 ± 0.13, 1.41 ± 0.085, 1.26 ± 0.14 and 1.42 ± 0.064.
Take IEWCSRCNDNLMRSCFY [YJL039C/NUP192]: the protein stability index stood at 3.17 ± 0.089 (doa10∆), 2.68 ± 0.085 (pdr5∆), 2.9 ± 0.067 (san1∆) and 2.69 ± 0.083 (ubr1∆).
As to IFAGAFVFQTVFDTAIT [QCR9], the protein stability index is 1.61 ± 0.048 (doa10∆), 1.35 ± 0.033 (pdr5∆), 1.48 ± 0.076 (san1∆) and 1.67 ± 0.04 (ubr1∆).
The corresponding values for IFALVFSSNERYFFWLQ [RPN13] are 1.25 ± 0.046, 1.61 ± 0.07, 1.65 ± 0.08 and 1.87 ± 0.046.
The sequence IFCIDLEVFHHFFKWIE [SRB8] came in with a protein stability index (doa10∆) of 1.25 ± 0.092, a protein stability index (pdr5∆) of 1.64 ± 0.16 and a protein stability index (san1∆) of 1.38 ± 0.14.
With IFDGNYGESDIHFREHQ [YMR129W/POM152], the protein stability index came out at 3.26 ± 0.11 (doa10∆), 3.21 ± 0.21 (pdr5∆), 3.58 ± 0.2 (san1∆) and 3.05 ± 0.15 (ubr1∆).
For IFIRQLKENEENEDGNI [BRR2], in that order: 3.5 ± 0.094, 3.37 ± 0.19, 3.2 ± 0.067 and 2.01 ± 0.087.
IFKGIGGNFKDLSTLVH [GAL11] yielded a protein stability index (doa10∆) of 2.07 ± 0.071, a protein stability index (pdr5∆) of 1.74 ± 0.042, a protein stability index (san1∆) of 1.83 ± 0.073 and a protein stability index (ubr1∆) of 1.85 ± 0.067.
For IFLQQFLQELLKKVQQQ [SWI1], in that order: 2.94 ± 0.098, 2.37 ± 0.12, 2.56 ± 0.11 and 2.5 ± 0.13.
For IFLSKENSAVAAKEGLA [COR1], in that order: 1.48 ± 0.058, 2.19 ± 0.072, 1.95 ± 0.14 and 1.6 ± 0.062.
Sequence IFSVHGNTVVDGEGKVD [YCG1] yielded a protein stability index (doa10∆) of 3.12 ± 0.2 and a protein stability index (pdr5∆) of 3.46 ± 0.18.
Turning to IFTDAGRVYRPLFIVED [RPB2], the protein stability index was found to be 2.16 ± 0.066 (doa10∆), 2.51 ± 0.08 (pdr5∆), 2.06 ± 0.074 (san1∆) and 1.89 ± 0.033 (ubr1∆).
For IGANIYQSPTIFKIVQS [MED6], in that order: 2.25 ± 0.069, 2.08 ± 0.072, 1.84 ± 0.1 and 2.27 ± 0.037.
IGAVYSGMGPDYRVLVD [PRE8]: the protein stability index by setting is: (doa10∆) 3.67 ± 0.28; (san1∆) 2.92 ± 0.3; (ubr1∆) 3.38 ± 0.12.
On to IGDKFASRHGQKGTIGI [RPB2], for which the protein stability index by setting is: (doa10∆) 1.34 ± 0.07; (pdr5∆) 1.96 ± 0.047; (san1∆) 1.57 ± 0.16; (ubr1∆) 1.1 ± 0.041.
For IGIVEIAHENEQKWLIY [SRB8], the protein stability index by setting is: (doa10∆) 1.69 ± 0.067; (pdr5∆) 1.83 ± 0.051; (san1∆) 1.58 ± 0.086; (ubr1∆) 1.54 ± 0.034.
Turning to IGLIALSATGTRSAKKM [YJR042W/NUP85], the protein stability index (san1∆) is 3 ± 0.15.
Regarding IGMSLLMRTFLYTLAQE [SIR3], the protein stability index runs as follows: (doa10∆) 1.82 ± 0.14; (pdr5∆) 2.37 ± 0.083; (san1∆) 1.83 ± 0.1; (ubr1∆) 1.76 ± 0.11.
The corresponding values for IHLQRFDEGTTLLSPKD [RPO21] are 2.94 ± 0.14, 2.57 ± 0.14, 2.91 ± 0.16 and 2.98 ± 0.2.
For IHNYDSKKSTITVRYWL [RGR1], in that order: 3 ± 0.087, 2.88 ± 0.081, 2.69 ± 0.067 and 3.09 ± 0.049.
Sequence IIANINSFTKGNVFSPI [SNU114] returned a protein stability index (doa10∆) of 2.18 ± 0.085, a protein stability index (pdr5∆) of 2.54 ± 0.067, a protein stability index (san1∆) of 2.43 ± 0.05 and a protein stability index (ubr1∆) of 2.21 ± 0.039.
For the sequence IIDRGRNVLSASLDGTI [RPN14], the protein stability index reads like this: (doa10∆) 3.1 ± 0.093; (pdr5∆) 2.52 ± 0.065; (san1∆) 2.97 ± 0.055; (ubr1∆) 2.77 ± 0.044.
With IIELENINAKMETRINI [YIL149C/MLP2], the protein stability index reads like this: (doa10∆) 3.06 ± 0.091; (pdr5∆) 2.63 ± 0.11; (san1∆) 2.5 ± 0.069; (ubr1∆) 2.62 ± 0.063.
For IIFEIEKPLVVPVKLEE [RRP6], in that order: 1.88 ± 0.079, 2.28 ± 0.071, 2.21 ± 0.12 and 2.14 ± 0.073.
On to IILLGVLEDCRHLPMYT [ITC1], for which the protein stability index runs as follows: (doa10∆) 1.37 ± 0.064; (pdr5∆) 1.59 ± 0.054; (san1∆) 2.44 ± 0.099; (ubr1∆) 2.47 ± 0.067.
In the case of IIVKILYYRPHINKKSQ [GRR1], the protein stability index (doa10∆) was found to be 1.66 ± 0.096, the protein stability index (pdr5∆) was 2.63 ± 0.11, the protein stability index (san1∆) came to 1.23 ± 0.18 and the protein stability index (ubr1∆) worked out at 2.51 ± 0.11.
